Assay [1] concerns the target T1, RAC1 P29S (Ras-related C3 botulinum toxin substrate 1) peptide on HLA-A*02:01 (human).
T1 peptide: FSGEYIPTV
As to the kind of experiment: multimer staining.

In assay [2] the target is T1, RAC1 P29S (Ras-related C3 botulinum …). As to the kind of experiment: cytokine release.

B1: T3/T4, chain combination TRAV5/TRBV20-1 (TCR, V domains shown)
Valpha: GEDVEQSLFLSVREGDSSVINCTYTDSSSTYLYWYKQEPGAGLQLLTYIFSNMDMKQDQRLTVLLNKKDKHLSLRIADTQTGDSAIYFCAESKRFSDGQKLLFARGTMLKVDL
Vbeta: GAVVSQHPSWVICKSGTSVKIECRSLDFQATTMFWYRQFPKQSLMLMATSNEGSKATYEQGVEKDKFLINHASLTLSTLTVTSAHPEDSSFYICSARDLITDTQYFGPGTRLTVL
As for B1, the binding result in assay [1] is on record as “recognises”.

B2: T5 (TCR, V domains shown)
Valpha: GENVEQHPSTLSVQEGDSAVIKCTYSDSASNYFPWYKQELGKGPQLIIDIRSNVGEKKDQRIAVTLNKTAKHFSLHITETQPEDSAVYFCAASLGSGNTPLVFGKGTRLSVIA
Vbeta: DVKVTQSSRYLVKRTGEKVFLECVQDMDHENMFWYRQDPGLGLRLIYFSYDVKMKEKGDIPEGYSVSREKKERFSLILESASTNQTSMYLCASSLHSGRDTQYFGPGTRLTVL
With B2, the binding result in assay [1] is given as “recognises”.

B3: T6 (TCR, V domains shown)
Valpha: GESVGLHLPTLSVQEGDNSIINCAYSNSASDYFIWYKQESGKGPQFIIDIRSNMDKRQGQRVTVLLNKTVKHLSLQIAATQPGDSAVYFCAENRGANSKLTFGKGITLSVRP
Vbeta: DAGVIQSPRHEVTEMGQEVTLRCKPISGHNSLFWYRQTMMRGLELLIYFNNNVPIDDSGMPEDRFSAKMPNASFSTLKIQPSEPRDSAVYFCASSFTGGFYGYTFGSGTRLTVV
For B3, the binding result in assay [1] is reported as “recognises”.

B4: T1 (TCR, V domains shown)
Valpha: EDQVTQSPEALRLQEGESSSLNCSYTVSGLRGLFWYRQDPGKGPEFLFTLYSAGEEKEKERLKATLTKKESFLHITAPKPEDSATYLCAVQTSQGGSEKLVFGKGTKLTVNP
Vbeta: DTEVTQTPKHLVMGMTNKKSLKCEQHMGHRAMYWYKQKAKKPPELMFVYSYEKLSINESVPSRFSPECPNSSLLNLHLHALQPEDSALYLCASSQDASGIYYEQYFGPGTRLTVT
Regarding B4, the binding result in assay [2] is reported as “recognises”.

B5: T2 (TCR, V domains shown)
Valpha: GENVEQHPSTLSVQEGDSAVIKCTYSDSASNYFPWYKQELGKGPQLIIDIRSNVGEKKDQRIAVTLNKTAKHFSLHITETQPEDSAVYFCAASRGGAQKLVFGQGTRLTINP
Vbeta: DTAVSQTPKYLVTQMGNDKSIKCEQNLGHDTMYWYKQDSKKFLKIMFSYNNKELIINETVPNRFSPKSPDKAHLNLHINSLELGDSAVYFCASSQLAGGPLYNEQFFGPGTRLTVL
Consider B5, for which the binding result in assay [2] is listed as “recognises”.

These data come from US20150307585A1 (published 2015).
